“Also recorded” adds a separate entry of the source.

The test system of one test is HAdV species A. Put plainly: Infection assay (hexon staining), HAdV species A. The format is cell-based, human adenovirus. The conditions noted are these: 15 µM HD5, A549 cells, hexon staining at ~48 h, vs. no defensin, at least three independent experiments. The method, then:
(§1) To determine whether sensitivity to α-defensins is a general property of HAdVs, serotypes representative of HAdV species A–F were tested for infectivity in the presence of 15 µM HD5 or HNP1 (Figure 1). Wild type HAdVs rather than vectors were used for these studies, and infectivity was assessed by staining for hexon production. […] These studies indicate that sensitivity to α-defensins is species specific. In addition, particular HAdV serotypes are not equally sensitive to all defensins, indicating defensin sequence specificity as well.
(§2) Figure 1 Sensitivity to neutralization by alpha-defensins is AdV species specific. HAdVs were incubated with 15 µM HD5 (A) or HNP1 (B) and assessed for infectivity on A549 cells. Data are the mean of the percent infectivity compared to control cells infected with each virus in the absence of defensin for at least three independent experiments ± SD. The upper limit for quantification of this assay is 200%. […]
(§3) Prior to use in this assay, each virus stock was titrated on A549 cells. […] In parallel, wells were infected with two-fold serial dilutions of each virus to establish a standard curve for quantification with an upper limit of 200%. […] Total well fluorescence above background was quantified with ImageJ software. For each virus, samples were quantified by nonlinear regression against the standard curve using Prism software (GraphPad Software, Inc., La Jolla, CA).

The test system of another test is HAdV species E. Put plainly: Infection assay (hexon staining), HAdV species E. The conditions noted are these: 15 µM HD5, A549 cells, hexon staining at ~48 h, vs. no defensin. The format is cell-based, human adenovirus. The method, then:
as §1, §2, §3

The test system of the next test is HAdV-D serotypes. Put plainly: Infection assay (hexon staining), HAdV species D. The conditions noted are these: 15 µM HD5, A549 cells, hexon staining at ~48 h, vs. no defensin; upper limit 200%. The format is cell-based, human adenovirus. The procedure:
as §1, §2, §3

A further test concerns Ad5.eGFP. In words: Ad5.eGFP infection, eGFP-positive cells by flow cytometry. The conditions noted are these: 15 µM defensin, percent eGFP positive cells vs. no defensin, at least three independent experiments. In kind it is cell-based, human adenovirus. The text has this: To gain further insight into the defensin-HAdV interaction, we assessed the requirement for two conserved structural elements on the anti-AdV activity of HD5. All defensins have three disulfide bonds (Figure 3A). […] The antibacterial properties of defensins, which are dependent upon protein-lipid interactions, are not uniformly conformation dependent [27]–[29]. […] In contrast, defensin-related chemokine activity, which relies on protein-protein interactions, is dependent on defensin conformation. We hypothesized that the defensin-capsid interaction for sensitive serotypes would likely be dependent upon defensin conformation, as this would be more typical for protein-protein interactions. […]
Figure 3 HD5 antiviral activity is structure dependent. […] C) Binding of Alexa Fluor 488-labeled HAdV-5 to cells was assessed after incubation with or without 20 µM HD5 or HD5-Abu and in competition with 100 nM 5FK or 16 FK. Data are the mean fold increase in geometric mean fluorescence compared to cells alone and are of at least 10,000 cells from each of three independent experiments ± SD.
To test the activity of HD5 derivates, Ad5.eGFP was incubated with 15 µM of HD5, HD5-Abu, or HD5-E14Q. Infectivity was assessed by enumerating eGFP-positive cells by flow cytometry as described.
(Flow cytometry measures light scatter and fluorescence of single cells or particles in a stream.)

A further test deals with GYAR virus. Put plainly: Infection assay, GYAR virus. The conditions noted are these: 5 µM HD5, A549 cells, at least three independent experiments. In kind it is cell-based, human adenovirus. The procedure:
Figure 6 Neutralization determinants are located in fiber and penton base. A) Schematic of chimeric viruses. Capsid proteins are depicted in the order in which they are encoded in the virus genome for HAdV-5 (white) and HAdV-19c (grey). The variable residues in fiber (GYAR and DTET) are indicated for each construct. B) Each of the chimeric viruses was incubated with 5 µM (grey) or 10 µM (black) HD5 and assessed for infectivity on A549 cells. Data are the mean of the percent infectivity compared to control cells infected with each virus in the absence of defensin for at least three independent experiments ± SD. The upper limit for quantification of this assay is 200%.
(§4) We then combined the GYAR substitution with the PB substitution in a single construct (PB/GYAR).
Prior to use in this assay, each virus stock was titrated on A549 cells. A virus concentration was chosen to produce 50–70% maximal signal in the absence of defensin as described below. […] In parallel, wells were infected with two-fold serial dilutions of each virus to establish a standard curve for quantification with an upper limit of 200%. […] Total well fluorescence above background was quantified with ImageJ software. For each virus, samples were quantified by nonlinear regression against the standard curve using Prism software (GraphPad Software, Inc., La Jolla, CA).

The next test concerns PB/GYAR. Put plainly: Virus-defensin binding assay, PB/GYAR. Also noted: species or system human adenovirus. The conditions noted are these: studies equivalent to Figure 2B, data not shown. The method, then: as §4
To measure HD5 binding to HAdV-5 and -51, HD5 was serially diluted in PBS and mixed with 5 µg purified virus. After 1 h incubation on ice, one half of each sample was separated by ultracentrifugation [209,000×g (avg.) for 2 hrs at 4°C] on a discontinuous gradient consisting of 300 µl of 30% nycodenz and 200 µl of 80% nycodenz in 50 mM NaCl, 20 mM HEPES pH 7.4 using an SW55ti rotor with adaptors (Beckman Coulter, Inc.). The visible virus band was collected. The other half of each sample was used to make a standard curve for quantification. All samples were boiled in reducing loading buffer and separated using a 16% PAGEgel (Expedeon, Inc., San Diego, CA) or 10–20% Tris-Tricine gel (Bio-Rad, Hercules, CA). The gels were stained with Deep Purple (GE Healthcare) and imaged on a Typhoon Trio. Virus bands were quantified using ImageQuant NT software (GE Healthcare). The amount of HD5 in each sample was normalized to protein V and hexon. The amount of HD5 in the centrifuged samples was then quantified against the standard curve using Prism software. Affinity and stoichiometry were estimated from the average data of at least three independent experiments using Prism software.

B1: HD5: human alpha-defensin; synthetic, obtained from Peptides International; three disulfide bonds (PDB 1ZMP) (peptide, UniProt Q01523 20-94, looked up)
Defensin alpha 5: ESLQERADEATTQKQSGEDNQDLAISFAGNGLSALRTSGSQARATCYCRTGRCATRESLSGVCEISGRLYRLCCR
modifications: Defensin-5
As to B1, the “sensitivity to neutralization (infectivity)” value in the test with HAdV species A was “sensitive”; with HAdV species E it was “sensitive”; in the test on HAdV-D serotypes, “completely resistant to HD5-mediated neutralization and, in most cases, infection is actually enhanced”. Further, in the test on Ad5.eGFP, the “antiviral activity against Ad5.eGFP” value is “only correctly folded HD5 has antiviral activity”. Moreover, the “sensitivity to HD5 neutralization compared to HAdV-5” value with GYAR virus is “less sensitive”. Also, the “amount of HD5 bound compared to HAdV-5” value in the test with PB/GYAR is given as “did not detect a reduction in the amount of HD5 bound; also recorded: did not result in a noticeable reduction in overall HD5 binding”.
